{"source": "patent US12698494", "key": {"[1]": {"target": "Von Willebrand Factor (VWF) multimers, P04275"}, "[2]": {"target": "T1, FRETS-VWF73 fluorogenic substrate, P04275", "T1 chain": "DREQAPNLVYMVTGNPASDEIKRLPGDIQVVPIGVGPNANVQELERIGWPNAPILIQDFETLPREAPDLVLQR"}}, "data": [{"protein": "Full-length ADAMTS13 variant NGLY2 (590PLFTH594 to 590PNFTH594) (protein) AAGGILHLELLVAVGPDVFQAHQEDTERYVLTNLNIGAELLRDPSLGAQFRVHLVKMVILTEPEGAPNITANLTSSLLSVCGWSQTINPEDDTDPGHADLVLYITRFDLELPDGNRQVRGVTQLGGACSPTWSCLITEDTGFDLGVTIAHEIGHSFGLEHDGAPGSGCGPSGHVMASDGAAPRAGLAWSPCSRRQLLSLLSAGRARCVWDPPRPQPGSAGHPPDAQPGLYYSANEQCRVAFGPKAVACTFAREHLDMCQALSCHTDPLDQSSCSRLLVPLLDGTECGVEKWCSKGRCRSLVELTPIAAVHGRWSSWGPRSPCSRSCGGGVVTRRRQCNNPRPAFGGRACVGADLQAEMCNTQACEKTQLEFMSQQCARTDGQPLRSSPGGASFYHWGAAVPHSQGDALCRHMCRAIGESFIMKRGDSFLDGTRCMPSGPREDGTLSLCVSGSCRTFGCDGRMDSQQVWDRCQVCGGDNSTCSPRKGSFTAGRAREYVTFLTVTPNLTSVYIANHRPNFTHLAVRIGGRYVVAGKMSISPNTTYPSLLEDGRVEYRVALTEDRLPRLEEIRIWGPLQEDADIQVYRRYGEEYGNLTRPDITFTYFQPKPRQAWVWAAVRGPCSVSCGAGLRWVNYSCLDQARKELVETVQCQGSQQPPAWPEACVLEPCPPYWAVGDFGPCSASCGGGLRERPVRCVEAQGSLLKTLPPARCRAGAQQPAVALETCNPQPCPARWEVSEPSSCTSAGGAGLALENETCVPGADGLEAPVTEGPGSVDEKLPAPEPCVGMSCPPGWGHLDATSAGEKAPSPWGSIRTGAQAAHVWTPAAGSCSVSCGRGLMELRFLCMDSALRVPVQEELCGLASKPGSRREVCQAVPCPARWQYKLAACSVSCGRGVVRRILYCARAHGEDDGEEILLDTQCQGLPRPEPQEACSLEPCPPRWKVMSLGPCSASCGLGTARRSVACVQLDQGQDVEVDEAACAALVRPEASVPCLIADCTYRWHVGTWMECSVSCGDGIQRRRDTCLGPQAQAPVPADFCQHLPKPVTVRGCWAGPCVGQGTPSLVPHEEAAAPGRTTATPAGASLEWSQARGLLFSPAPQPRRLLPGPQENSVQSSACGRQHLEPTGTIDMRGPGQADCAVAIGRPLGEVVTLRVLESSLNCSAGDMLLLWGRLTWRKMCRKLLDMTFSSKTNTLVVRQRCGRPGGGVLLRYGSQLAPETFYRECDMQLFGPWGEIVSPSLSPATSNAGGCRLFINVAPHARIAIHALATNMGAGTEGANASYILIRDTHSLRTTAFHGQQVLYWESESSQAEMEFSEGFLKAQASLRGQYWTLQSWVPEMQDPQSWKGKEGTHHHHHH", "values": [{"measurement": "VWF multimer assay (urea-denatured recombinant VWF)", "setting": "[1]", "value": "a reduced VWF processing activity was observed for NGLY2 and NGLY5"}, {"measurement": "FRETS-VWF73 activity relative to wild-type ADAMTS13", "setting": "[2]", "value": "The ability of NGLY1, 2, 3 and 4 was similar or higher when compared to wild-type ADAMTS13"}]}, {"protein": "Full-length wild-type ADAMTS13 (1427 amino acids) (protein) AAGGILHLELLVAVGPDVFQAHQEDTERYVLTNLNIGAELLRDPSLGAQFRVHLVKMVILTEPEGAPNITANLTSSLLSVCGWSQTINPEDDTDPGHADLVLYITRFDLELPDGNRQVRGVTQLGGACSPTWSCLITEDTGFDLGVTIAHEIGHSFGLEHDGAPGSGCGPSGHVMASDGAAPRAGLAWSPCSRRQLLSLLSAGRARCVWDPPRPQPGSAGHPPDAQPGLYYSANEQCRVAFGPKAVACTFAREHLDMCQALSCHTDPLDQSSCSRLLVPLLDGTECGVEKWCSKGRCRSLVELTPIAAVHGRWSSWGPRSPCSRSCGGGVVTRRRQCNNPRPAFGGRACVGADLQAEMCNTQACEKTQLEFMSQQCARTDGQPLRSSPGGASFYHWGAAVPHSQGDALCRHMCRAIGESFIMKRGDSFLDGTRCMPSGPREDGTLSLCVSGSCRTFGCDGRMDSQQVWDRCQVCGGDNSTCSPRKGSFTAGRAREYVTFLTVTPNLTSVYIANHRPLFTHLAVRIGGRYVVAGKMSISPNTTYPSLLEDGRVEYRVALTEDRLPRLEEIRIWGPLQEDADIQVYRRYGEEYGNLTRPDITFTYFQPKPRQAWVWAAVRGPCSVSCGAGLRWVNYSCLDQARKELVETVQCQGSQQPPAWPEACVLEPCPPYWAVGDFGPCSASCGGGLRERPVRCVEAQGSLLKTLPPARCRAGAQQPAVALETCNPQPCPARWEVSEPSSCTSAGGAGLALENETCVPGADGLEAPVTEGPGSVDEKLPAPEPCVGMSCPPGWGHLDATSAGEKAPSPWGSIRTGAQAAHVWTPAAGSCSVSCGRGLMELRFLCMDSALRVPVQEELCGLASKPGSRREVCQAVPCPARWQYKLAACSVSCGRGVVRRILYCARAHGEDDGEEILLDTQCQGLPRPEPQEACSLEPCPPRWKVMSLGPCSASCGLGTARRSVACVQLDQGQDVEVDEAACAALVRPEASVPCLIADCTYRWHVGTWMECSVSCGDGIQRRRDTCLGPQAQAPVPADFCQHLPKPVTVRGCWAGPCVGQGTPSLVPHEEAAAPGRTTATPAGASLEWSQARGLLFSPAPQPRRLLPGPQENSVQSSACGRQHLEPTGTIDMRGPGQADCAVAIGRPLGEVVTLRVLESSLNCSAGDMLLLWGRLTWRKMCRKLLDMTFSSKTNTLVVRQRCGRPGGGVLLRYGSQLAPETFYRECDMQLFGPWGEIVSPSLSPATSNAGGCRLFINVAPHARIAIHALATNMGAGTEGANASYILIRDTHSLRTTAFHGQQVLYWESESSQAEMEFSEGFLKAQASLRGQYWTLQSWVPEMQDPQSWKGKEGTHHHHHH", "values": [{"measurement": "Ability to process VWF multimers under denaturing conditions", "setting": "[1]", "value": "++++++"}, {"measurement": "vortex assay: processing of VWF multimers under turbulent flow", "setting": "[1]", "value": "resulted in loss of the high molecular weight multimers from the sample"}, {"measurement": "Activity level (% relative to wild type ADAMTS13) VWFFRETS73 (% relative to wild type ADAMTS13)", "setting": "[2]", "value": 100}]}, {"protein": "Full-length ADAMTS13 variant NGLY4 (608KMSIS612 to 608KNSTS612) (protein) AAGGILHLELLVAVGPDVFQAHQEDTERYVLTNLNIGAELLRDPSLGAQFRVHLVKMVILTEPEGAPNITANLTSSLLSVCGWSQTINPEDDTDPGHADLVLYITRFDLELPDGNRQVRGVTQLGGACSPTWSCLITEDTGFDLGVTIAHEIGHSFGLEHDGAPGSGCGPSGHVMASDGAAPRAGLAWSPCSRRQLLSLLSAGRARCVWDPPRPQPGSAGHPPDAQPGLYYSANEQCRVAFGPKAVACTFAREHLDMCQALSCHTDPLDQSSCSRLLVPLLDGTECGVEKWCSKGRCRSLVELTPIAAVHGRWSSWGPRSPCSRSCGGGVVTRRRQCNNPRPAFGGRACVGADLQAEMCNTQACEKTQLEFMSQQCARTDGQPLRSSPGGASFYHWGAAVPHSQGDALCRHMCRAIGESFIMKRGDSFLDGTRCMPSGPREDGTLSLCVSGSCRTFGCDGRMDSQQVWDRCQVCGGDNSTCSPRKGSFTAGRAREYVTFLTVTPNLTSVYIANHRPLFTHLAVRIGGRYVVAGKNSTSPNTTYPSLLEDGRVEYRVALTEDRLPRLEEIRIWGPLQEDADIQVYRRYGEEYGNLTRPDITFTYFQPKPRQAWVWAAVRGPCSVSCGAGLRWVNYSCLDQARKELVETVQCQGSQQPPAWPEACVLEPCPPYWAVGDFGPCSASCGGGLRERPVRCVEAQGSLLKTLPPARCRAGAQQPAVALETCNPQPCPARWEVSEPSSCTSAGGAGLALENETCVPGADGLEAPVTEGPGSVDEKLPAPEPCVGMSCPPGWGHLDATSAGEKAPSPWGSIRTGAQAAHVWTPAAGSCSVSCGRGLMELRFLCMDSALRVPVQEELCGLASKPGSRREVCQAVPCPARWQYKLAACSVSCGRGVVRRILYCARAHGEDDGEEILLDTQCQGLPRPEPQEACSLEPCPPRWKVMSLGPCSASCGLGTARRSVACVQLDQGQDVEVDEAACAALVRPEASVPCLIADCTYRWHVGTWMECSVSCGDGIQRRRDTCLGPQAQAPVPADFCQHLPKPVTVRGCWAGPCVGQGTPSLVPHEEAAAPGRTTATPAGASLEWSQARGLLFSPAPQPRRLLPGPQENSVQSSACGRQHLEPTGTIDMRGPGQADCAVAIGRPLGEVVTLRVLESSLNCSAGDMLLLWGRLTWRKMCRKLLDMTFSSKTNTLVVRQRCGRPGGGVLLRYGSQLAPETFYRECDMQLFGPWGEIVSPSLSPATSNAGGCRLFINVAPHARIAIHALATNMGAGTEGANASYILIRDTHSLRTTAFHGQQVLYWESESSQAEMEFSEGFLKAQASLRGQYWTLQSWVPEMQDPQSWKGKEGTHHHHHH", "values": [{"measurement": "VWF multimer assay (urea-denatured recombinant VWF)", "setting": "[1]", "value": "The VWF processing activity of NGLY3 and NGLY4 was similar to that of the wild-type ADAMTS13"}, {"measurement": "FRETS-VWF73 activity relative to wild-type ADAMTS13", "setting": "[2]", "value": "The ability of NGLY1, 2, 3 and 4 was similar or higher when compared to wild-type ADAMTS13"}]}, {"protein": "Full-length ADAMTS13 variant NGLY3 (607GKMSI611 to 607GNMSI611; K608N) (protein) AAGGILHLELLVAVGPDVFQAHQEDTERYVLTNLNIGAELLRDPSLGAQFRVHLVKMVILTEPEGAPNITANLTSSLLSVCGWSQTINPEDDTDPGHADLVLYITRFDLELPDGNRQVRGVTQLGGACSPTWSCLITEDTGFDLGVTIAHEIGHSFGLEHDGAPGSGCGPSGHVMASDGAAPRAGLAWSPCSRRQLLSLLSAGRARCVWDPPRPQPGSAGHPPDAQPGLYYSANEQCRVAFGPKAVACTFAREHLDMCQALSCHTDPLDQSSCSRLLVPLLDGTECGVEKWCSKGRCRSLVELTPIAAVHGRWSSWGPRSPCSRSCGGGVVTRRRQCNNPRPAFGGRACVGADLQAEMCNTQACEKTQLEFMSQQCARTDGQPLRSSPGGASFYHWGAAVPHSQGDALCRHMCRAIGESFIMKRGDSFLDGTRCMPSGPREDGTLSLCVSGSCRTFGCDGRMDSQQVWDRCQVCGGDNSTCSPRKGSFTAGRAREYVTFLTVTPNLTSVYIANHRPLFTHLAVRIGGRYVVAGNMSISPNTTYPSLLEDGRVEYRVALTEDRLPRLEEIRIWGPLQEDADIQVYRRYGEEYGNLTRPDITFTYFQPKPRQAWVWAAVRGPCSVSCGAGLRWVNYSCLDQARKELVETVQCQGSQQPPAWPEACVLEPCPPYWAVGDFGPCSASCGGGLRERPVRCVEAQGSLLKTLPPARCRAGAQQPAVALETCNPQPCPARWEVSEPSSCTSAGGAGLALENETCVPGADGLEAPVTEGPGSVDEKLPAPEPCVGMSCPPGWGHLDATSAGEKAPSPWGSIRTGAQAAHVWTPAAGSCSVSCGRGLMELRFLCMDSALRVPVQEELCGLASKPGSRREVCQAVPCPARWQYKLAACSVSCGRGVVRRILYCARAHGEDDGEEILLDTQCQGLPRPEPQEACSLEPCPPRWKVMSLGPCSASCGLGTARRSVACVQLDQGQDVEVDEAACAALVRPEASVPCLIADCTYRWHVGTWMECSVSCGDGIQRRRDTCLGPQAQAPVPADFCQHLPKPVTVRGCWAGPCVGQGTPSLVPHEEAAAPGRTTATPAGASLEWSQARGLLFSPAPQPRRLLPGPQENSVQSSACGRQHLEPTGTIDMRGPGQADCAVAIGRPLGEVVTLRVLESSLNCSAGDMLLLWGRLTWRKMCRKLLDMTFSSKTNTLVVRQRCGRPGGGVLLRYGSQLAPETFYRECDMQLFGPWGEIVSPSLSPATSNAGGCRLFINVAPHARIAIHALATNMGAGTEGANASYILIRDTHSLRTTAFHGQQVLYWESESSQAEMEFSEGFLKAQASLRGQYWTLQSWVPEMQDPQSWKGKEGTHHHHHH", "values": [{"measurement": "Ability to process VWF multimers under denaturing conditions", "setting": "[1]", "value": "++++++"}, {"measurement": "VWF multimer assay (urea-denatured recombinant VWF)", "setting": "[1]", "value": "The VWF processing activity of NGLY3 and NGLY4 was similar to that of the wild-type ADAMTS13"}, {"measurement": "vortex assay: processing of VWF multimers under shear stress", "setting": "[1]", "value": "Under these conditions NGLY3 was fully active"}, {"measurement": "Activity level (% relative to wild type ADAMTS13) VWFFRETS73 (% relative to wild type ADAMTS13)", "setting": "[2]", "value": 125}, {"measurement": "FRETS-VWF73 activity relative to wild-type ADAMTS13", "setting": "[2]", "value": "The ability of NGLY1, 2, 3 and 4 was similar or higher when compared to wild-type ADAMTS13"}]}]}
